Test results published in article PMC7719173.

Biological target: human TRAPPII complex (TRAPPC1, TRAPPC2, TRAPPC2L, TRAPPC3, TRAPPC4, TRAPPC5, TRAPPC6A, TRAPPC9, TRAPPC10) (human) (UniProt Q9Y5R8)

Substance: Rab11 (from UniProt P62491 1-216) (natural protein)
- catalytic efficiency (kcat/Km) of TRAPPII-catalysed release of Mant-GDP from 4 µM Rab-His6 in solution, TRAPPII 19–300 nM: 2900 M⁻¹ s⁻¹
